In patent US20060019335A1, “Compositions and methods to promote c-IAP autodegradation” (priority 2004, published 2006):

T1: Livin α (Homo sapiens, UniProt Q96CA5)
T1 construct: expressed in transfected cells; host or cells: HeLa
T1 sequence (Q96CA5 1-298): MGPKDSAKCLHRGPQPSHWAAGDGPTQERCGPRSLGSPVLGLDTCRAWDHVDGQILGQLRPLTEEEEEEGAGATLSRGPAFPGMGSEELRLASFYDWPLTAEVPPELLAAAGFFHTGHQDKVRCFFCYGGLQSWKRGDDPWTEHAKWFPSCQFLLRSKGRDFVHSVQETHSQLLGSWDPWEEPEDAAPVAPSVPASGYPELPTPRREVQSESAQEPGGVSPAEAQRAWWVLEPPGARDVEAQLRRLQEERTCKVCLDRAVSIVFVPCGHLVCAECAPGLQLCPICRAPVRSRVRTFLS


How the values were obtained:
Livin α = target: T1, Livin α; experiment: Co-transfection of HeLa cells with Livin α and Smac plasmids, Western blot; assay type: cell-based; settings: for auto-ubiquitylation of Livin: FIG. 3B
Experimental: (§1) Transfection of cultured Cells—HeLa cells were grown in DMEM supplemented with 10% fetal bovine serum. Cells were seeded onto 6-well plates the day before transfection and transfected at 70% confluence by using Lipofectin combined with Plus reagent (Invitrogen) according to the manufacture's protocols. The IAP expression plasmids (3 μg each for c-IAP1, c-IAP2 and XIAP, and 250 ng each for Livin αand Livin β) together with 2.5 μg of Smac expression plasmids or pcDNA3.1(−) blank plasmid were used for single-well transfection in the absence of antibiotics. The cells were harvested 12 hours after the transfection and lysed with 0.5% CHAPS in 20 mM HEPES (pH 7.4), 10 mM KCl, 1 mM MgCl2 and 1 mM DTT. The lysates were centrifuged and the protein concentrations of the supernatants were quantified by the modified Bradford method (36).
(§2) Western Blot analysis—Proteins were resolved by SDS-PAGE and transferred to nitrocellulose filters. The filters were blocked with 5% milk and probed with antibodies as indicated. The signals were visualized with the enhanced chemiluminescence method.
In the current study, Livin was also transiently expressed in HeLa cells to determine the ubiquitylation activity (see FIG. 3B). Briefly, Livin α WT or H269A mutant plasmids together with Smac WT or Smac ΔA mutant, or with pcDNA3.1(−) blank plasmid, were co-transfected into HeLa cells. As controls, HeLa cells were also transfected with either Smac WT or ΔA plasmids together with the blank p3×FLAG-CMV-7 plasmid. The transfected cells were cultivated either in the absence (see lanes 1-7 of FIG. 3B) or in the presence (see lane 8-14 of FIG. 3B) of MG132. Equal amounts of soluble proteins (7 μg) from the transfected cells were immunoblotted with either the HRP-conjugated anti-FLAG antibody (see top panel of FIG. 3B) to detect N-terminal 3×FLAG tagged IAPs, or with the anti-c-Myc antibody (see middle panel of FIG. 3B) to detect Smac. The anti-Actin immunoblotting results were to show equal protein loading (see bottom panel of FIG. 3B). […]

[1] = system: IAP proteins (GST fusion form); experiment: GST pull-down of purified IAP proteins with Smac, silver staining; assay type: binding, human; settings: equimolar concentrations, 2 hours at 4° C., FIG. 4
Experimental: The ability of various IAP proteins to bind Smac WT polypeptide and Smac ΔA mutant polypeptide was also examined. The results are depicted in FIG. 4. Briefly, purified IAP proteins (GST fusion form; as indicated in FIG. 4) were incubated with equimolar concentrations of either Smac or Smac ΔA in a buffer containing 20 mM phosphate (pH 7.4), 200 mM NaCl and 0.05% Tween 20 for 2 hours at 4° C. The GST-fused IAP proteins were pulled down by Glutathione Sepharose beads. The resulting […] were subjected to SDS-PAGE followed by silver staining. Lane M of FIG. 4 is the protein marker. […] The reason for this IBM-independent acceleration on XIAP and Livin ubiquitylation is unknown.

XIAP = XIAP (Homo sapiens, UniProt P98170); experiment: Co-transfection of HeLa cells with XIAP and Smac plasmids, Western blot; assay type: cell-based; design: expressed in transfected cells; host or cells: HeLa; settings: for XIAP ubiquitylation: co-transfection
Experimental: as §1, §2
To investigate the effect of Smac polypeptide on IAP protein levels, HeLa cells were transfected with the expression vectors for Smac and various IAPs. Briefly, HeLa cells were either transfected with IAP alone (Lane 2, 4 and 6), or together with Smac polypeptide (Lane 3, 5 and 7), or with Smac polypeptide alone (Lane 1). Equal amounts of cell lysates (7 μg) were immunoblotted with either the HRP-conjugated anti-FLAG antibody (shown in the top panel) in order to detect N-terminal 3×FLAG tagged IAPs, or with the anti-c-Myc antibody (bottom panel) to detect C-terminal c-Myc tagged Smac. The ubiquitin fusion technique was used to secure the production of mature Smac protein with the expected N-terminal AVPI motif (6, 37).
It is known that XIAP is ubiquitylated by its own E3 activity when expressed in HEK 293T cells and that this auto-ubiquitylation and subsequent degradation is stimulated by Reaper (26). In the current study, XIAP transiently expressed in HeLa cells was ubiquitylated as well; however, mono-ubiquitylation rather than poly-ubiquitylation of XIAP was the major product (see FIG. 3A). Briefly, XIAP WT or H467A mutant plasmids together with either Smac WT or ΔA, or with pcDNA3.1(−) blank plasmid, were co-transfected into the HeLa cells. As controls, HeLa cells were also transfected with either Smac WT or ΔA plasmids together with the blank p3×FLAG-CMV-7 plasmid. The transfected cells were cultivated either in the absence (see lanes 1-7 of FIG. 3A) or in the presence (see lanes 8-14 of FIG. 3A) of MG132. Equal amounts of soluble proteins (7 μg) from the transfected cells were immunoblotted with either the HRP-conjugated anti-FLAG antibody (see top panel of FIG. 3A) to detect N-terminal 3×FLAG tagged IAPs, or with the anti-c-Myc antibody (see middle panel of FIG. 3A) to detect Smac. The anti-Actin immunoblotting results were to show equal protein loading (see bottom panel of FIG. 3A).

Chain of XIAP (P98170 whole entry): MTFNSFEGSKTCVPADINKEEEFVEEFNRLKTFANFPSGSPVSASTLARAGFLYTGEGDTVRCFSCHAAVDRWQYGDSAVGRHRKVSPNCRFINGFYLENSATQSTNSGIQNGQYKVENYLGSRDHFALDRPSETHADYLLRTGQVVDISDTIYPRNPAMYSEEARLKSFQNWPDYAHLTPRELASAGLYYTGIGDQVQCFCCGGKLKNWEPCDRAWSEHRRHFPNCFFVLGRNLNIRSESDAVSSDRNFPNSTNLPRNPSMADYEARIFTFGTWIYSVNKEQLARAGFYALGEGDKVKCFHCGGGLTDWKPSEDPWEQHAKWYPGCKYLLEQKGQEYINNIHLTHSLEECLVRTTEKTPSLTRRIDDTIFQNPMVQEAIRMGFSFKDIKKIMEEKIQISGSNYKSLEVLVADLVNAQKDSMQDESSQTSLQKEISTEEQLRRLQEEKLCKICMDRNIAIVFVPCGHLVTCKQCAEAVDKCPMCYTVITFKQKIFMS

Molecule | auto-ubiquitylation of Livin (Livin α) | degradation of Livin α (Livin α; absence of MG132, FIG. 3B) | binding to IAP proteins [1] | level of XIAP (XIAP; co-expression, absence of MG132) | overall amount of XIAP (XIAP; co-transfected Smac, FIG. 3A) | XIAP ubiquitylation (XIAP; FIG. 3A) | protein level of XIAP (XIAP; mature Smac co-expressed, FIG. 1) | binding to IAP proteins ([1]; listed as Smac mutant lacking the initial Ala residue)
Smac: wild type (WT) Smac polypeptide from Homo sapiens, SEQ ID NO 1, 239 amino acids; second mitochondria-derived activator of caspase (protein, listed as Homo sapiens) MAALKSWLSRSVTSFFRYRQCLCVPVVANFKKRCFSELIRPWHKTVTIGFGVTLCAVPIAQKSEPHSLSSEALMRRAVSLVTDSTSTFLSQTTYALIEAITEYTKAVYTLTSLYRQYTSLLGKMNSEEEDEVWQVIIGARAEMTSKHQEYLKLETTWMTAVGLSEMAAEAAYQTGADQASITARNHIQLVKLQVEEVHQLSRKAETKLAEAQIEELRQKTQEEGEERAESEQEAYLRED | effectively stimulates auto-ubiquitylation of Livin α | slightly promoted the degradation of Livin α | bind | negligible effect | not significantly affected | still promoted XIAP ubiquitylation | unaffected | 
Smac ΔA: Smac mutant lacking the initial Ala (Ala deletion mutant polypeptide), used as negative control (protein, UniProt Q9NR28 22-239, looked up, variant A1*) Diablo IAP-binding …: LCVPVVANFKKRCFSELIRPWHKTVTIGFGVTLCVPIAQKSEPHSLSSEALMRRAVSLVTDSTSTFLSQTTYALIEAITEYTKAVYTLTSLYRQYTSLLGKMNSEEEDEVWQVIIGARAEMTSKHQEYLKLETTWMTAVGLSEMAAEAAYQTGADQASITARNHIQLVKLQVEEVHQLSRKAETKLAEAQIEELRQKTQEEGEERAESEQEAYLRED | stimulated the auto-ubiquitylation of XIAP and Livin |  | failure to bind |  |  | stimulated the auto-ubiquitylation of XIAP and Livin |  | did not bind IAP proteins
